Source: patent US20180186877A1 (NATIONAL CEREBRAL AND CARDIOVASCULAR CENTER, published 2018)

Target: Epitope-tagged recombinant LOX-1 protein (NM002543, aa 61-273, 6xHis); pcDNA4, Igk secretion signal; secreted … (UniProt P78380 61-273)
Assay: SPR (Biacore), FVa immobilised on the chip, LOX-1 0-400 nM flowed; equilibrium (Req) analysis
Protocol: Note that the Igκ secretion signal was obtained by pSecTag/FRT/V5-HisTOPO (Invitrogen). […] The surface plasmon resonance was performed using Biacore (manufactured by GE Healthcare, Inc.).

Kd: 22.1 nM
B1: Human Factor Va (HCVA-0110, Haematologic Technologies Inc.) (other)
H chain: AQLRQFYVAAQGISWSYRPEPTNSSLNLSVTSFKKIVYREYEPYFKKEKPQSTISGLLGPTLYAEVGDIIKVHFKNKADKPLSIHPQGIRYSKLSEGASYLDHTFPAEKMDDAVAPGREYTYEWSISEDSGPTHDDPPCLTHIYYSHENLIEDFNSGLIGPLLICKKGTLTEGGTQKTFDKQIVLLFAVFDESKSWSQSSSLMYTVNGYVNGTMPDITVCAHDHISWHLLGMSSGPELFSIHFNGQVLEQNHHKVSAITLVSATSTTANMTVGPEGKWIISSLTPKHLQAGMQAYIDIKNCPKKTRNLKKITREQRRHMKRWEYFIAAEEVIWDYAPVIPANMDKKYRSQHLDNFSNQIGKHYKKVMYTQYEDESFTKHTVNPNMKEDGILGPIIRAQVRDTLKIVFKNMASRPYSIYPHGVTFSPYEDEVNSSFTSGRNNTMIRAVQPGETYTYKWNILEFDEPTENDAQCLTRPYYSDVDIMRDIASGLIGLLLICKSRSLDRRGIQRAADIEQQAVFAVFDENKSWYLEDNINKFCENPDEVKRDDPKFYESNIMSTINGYVPESITTLGFCFDDTVQWHFCSVGTQNEILTIHFTGHSFIYGKRHEDTLTLFPMRGESVTVTMDNVGTWMLTSMNSSPRSKKLRLKFRDVKCIPDDDEDSYEIFEPPESTVMATRKMHDRLEPEDEESDADYDYQNRLAAALGIR
L chain: SNNGNRRNYYIAAEEISWDYSEFVQRETDIEDSDDIPEDTTYKKVVFRKYLDSTFTKRDPRGEYEEHLGILGPIIRAEVDDVIQVRFKNLASRPYSLHAHGLSYEKSSEGKTYEDDSPEWFKEDNAVQPNSSYTYVWHATERSGPESPGSACRAWAYYSAVNPEKDIHSGLIGPLLICQKGILHKDSNMPMDMREFVLLFMTFDEKKSWYYEKKSRSSWRLTSSEMKKSHEFHAINGMIYSLPGLKMYEQEWVRLHLLNIGGSQDIHVVHFHGQTLLENGNKQHQLGVWPLLPGSFKTLEMKASKPGWWLLNTEVGENQRAGMQTPFLIMDRDCRMPMGLSTGIISDSQIKASEFLGYWEPRLARLNNGGSYNAWSVEKLAAEFASKPWIQVDMQKEVIITGIQTQGAKHYLKSCYTTEFYVAYSSNQINWQIFKGNSTRNVMYFNGNSDASTIKENQFDPPIVARYIRISPTRAYNRPTLRLELQGCEVNGCSTPLGMENGKIENKQITASSFKKSWWGDYWEPFRARLNAQGRVNAWQAKANNNKQWLEIDLLKIKKITAIITQGCKSLSSEMYVKSYTIHYSEQGVEWKPYRLKSSMVDKIFEGNTNTKGHVKNFFNPPIISRFIRVIPKTWNQSIALRLELFGCDIY
modifications: Two-chain, plasma-derived glycoprotein. The H and L chains are held together non-covalently through Ca2+. Glycosylation and tyrosine sulfation are not carried by the letters.
notes: also called FVa
